Test results published in the DeepSol protein solubility set.

assay: soluble on expression in E. coli; label from the status in PepcDB or PDB records

**Q.** For “MASNMDREMILADFQACTGIENIDEAITLLEQNNWDLVAAINGVIPQENGILQSEYGGETIPGPAFNPASHPASAPTSSSSSAFRPVMPSRQIVERQPRMLDFRVEYRDRNVDVVLEDTCTVGEIKQILENELQIPVSKMLLKGWKTGDVEDSTVLKSLHLPKNNSLYVLTPDLPPPSSSSHAGALQESLNQNFMLIITHREVQREYNLNFSGSSTIQEVKRNVYDLTSIPVRHQLWEGWPTSATDDSMCLAESGLSYPCHRLTVGRRSSPAQTREQSEEQITDVHMVSDSDGDDFEDATEFGVDDGEVFGMASSALRKSPMMPENAENEGDALLQFTAEFSSRYGDCHPVFFIGSLEAAFQEAFYVKARDRKLLAIYLHHDESVLTNVFCSQMLCAESIVSYLSQNFITWAWDLTKDSNRARFLTMCNRHFGSVVAQTIRTQKTDQFPLFLIIMGKRSSNEVLNVIQGNTTVDELMMRLMAAMEIFTAQQQEDIKDEDEREARENVKREQDEAYRLSLEADRAKREAHEREMAEQFRLEQIRKEQEEEREAIRLSLEQALPPEPKEENAEPVSKLRIRTPSGEFLERRFLASNKLQIVFDFVASKGFPWDEYKLLSTFPRRDVTQLDPNKSLLEVKLFPQETLFLEAKE”, which “soluble on expression in E. coli” value is on record?
**A.** soluble

**Q.** For “MASPLYLHSSDGPENLITNVQLKGENYEDWAKHVRNASRTKQKLGFIDGTLEKPTKEDDMEQ”, which “soluble on expression in E. coli” value is on record?
**A.** not soluble

**Q.** For “MASTKDEVVRMSVDEYWEDIKDDYLIQLANTDPNEVYPSNNPGPTTADGQINFECHCVGHLVGSPCGFEFREAITCQKTNSDGEIEQGACGKELMSFMECVTRTQCFGTGDNDKK”, which “soluble on expression in E. coli” value is on record?
**A.** not soluble

**Q.** Which “soluble on expression in E. coli” value does the source give for “MASTSKPAASTTAIKKYYFYVLLCADQTLYGGFTDNLQRRLATHNAGKGAKYTRVRSRRPLQLIYHETFTDKSSALKAEYAFKHQSRAAKLKYLSAHDVKILEHHHHHH” here?
**A.** not soluble

**Q.** Which “soluble on expression in E. coli” value does the source give for “MASVHGTTYELLRRQGIDTVFGNPGSNELPFLKDFPEDFRYILALQEACVVGIADGYAQASRKPAFINLHSAAGTGNAMGALSNAWNSHSPLIVTAGQQTRAMIGVEALLTNVDAANLPRPLVKWSYEPASAAEVPHAMSRAIHMASMAPQGPVYLSVPYDDWDKDADPQSHHLFDRHVSSSVRLNDQDLDILVKALNSASNPAIVLGPDVDAANANADCVMLAERLKAPVWVAPSAPRCPFPTRHPCFRGLMPAGIAAISQLLEGHDVVLVIGAPVFRYHQYDPGQYLKPGTRLISVTCDPLEAARAPMGDAIVADIGAMASALANLVEESSRQLPTAAPEPAKVDQDAGRLHPETVFDTLNDMAPENAIYLNESTSTTAQMWQRLNMRNPGSYYFCAAGGLGFALPAAIGVQLAEPERQVIAVIGDGSANYSISALWTAAQYNIPTIFVIMNNGTYGALRWFAGVLEAENVPGLDVPGIDFRALAKGYGVQALKADNLEQLKGSLQEALSAKGPVLIEVSTVSPVKHHHHHH” here?
**A.** soluble

**Q.** For “MATARTARSRRKVRKVRDKWKEKVWYEIYATPEFGGVFIGYTPANDPSLVLGRVAETSLRDLTGDPTKHMHRVYFKIFGVTGNKAIAQYYGHDTTREFMKSQIRRRRSRIDAILDVKTQDGHKIRTKAMVLTAYRANTKQKSDIRKKMEEIIKAMAKEKTFPQYVQAMLFGEMAEKIKNECKKIFPIKNVIIYKSEVLSLAKKEENEGFVKEAEEETAEAQELEHHHHHH”, which “soluble on expression in E. coli” value is on record?
**A.** soluble

**Q.** Which “soluble on expression in E. coli” value does the source give for “MATESALIKVHVKSPSNKYDVEIAADASVSELKDKVLVFVPTANKEQVCIIYTGKILKDEETLTQHKIADGHTVHLVIRNQARPTPAPAAATPTASSAPSSNPTPSSQPNPTNNPFAAMGGMGSPADILNNPDAMRSVMDNPITQQLLGNPEFMRTIIQSNPQFQALIERNPEVGHILNDPNVMRQTMEMIRNPNMFQEMMRNHDQAIRNLQGIPGGEAALERLYNDVQEPLLNSATNSLSGNPFASLRGDQSSEPRVDRAGQENNEALPNPWASNANQATNNQSNNRSADFNSLLDSPGISSLMEQMMSNPSMQASMFSPEVINSIRQNMSNNPGLIDSIVGQIPSARDNPQISEGIRRSFPQMLNMMSDPSVMEAMRNPRVSEAFRQIQEGFSTLRREAPQLLNLFQAGAMGGGAFGSDANASSAGANSANGLADLFNSMNMGGGRPSSTAAPVNPEQTYASQLEQLQSMGFSDRARNVAALTATFGDLNAAVERLLNSP” here?
**A.** not soluble

**Q.** For “MATGLGFFKLSFLLSLLSGGSDLLGPDAESGVAQIGKFPPSCNRIECPSYELVHSGNGYEIRRYNNTVWVSTEPIPDISLVDATRTAFFQLFAYIQGKNEYHQKIEMTAPVISQVSPSDGPFCESSFTVSFYVPKKNQPDPAPSENLHIQKWNSRYVAVRQFSGFVSDDSIGEQAAALDSSLKGTAWANAIAKSKEDGGVGSDSAYTVAQYNSPFEFSGRVNEIWLPFELDV”, which “soluble on expression in E. coli” value is on record?
**A.** not soluble
